Measurements reported in patent US20250034239A1 (LINNO PHARMACEUTICALS, published 2025).

B1: SLN-6068 humanized VHH-Fc (Fc fusion)
chain: EVQLVESGGGLVQPGGSLRLSCAASVYTSSTYYMAWFRQAPGKGREGVAAAYAGGGGTVYADSVKGRFTISQDNSKNTLYLQMNSLRAEDTAVYYCAARMSRLLGMAPLLPEHYDSWGQGTLVTVSS
notes: tested as VHH-Fc; also called C2-11; not shown: human IgG4 Fc (VHH-hIgG4 Fc fusion)
B2: SLN-6043 humanized VHH-Fc (Fc fusion)
chain: EVQLVESGGGVVQPGGSLRLSCAASGFTSDNCAVHWVRQAPGKGLEWVSSISSDDSTRYADSVKGRFTISRDNSKNSLYLQMNSLRTEDTALYYCQTKWPCTYRRGGSAYRPAVVWGQGTLVTVSS
notes: tested as VHH-Fc; also called F6-1; not shown: human IgG4 Fc (VHH-hIgG4 Fc fusion)
B3: SLN0056 VHH-OVA-His (VHH)
chain: EVQLVESGGGSVQAGGSLRLSCRASGHAYGGNYMGWFRQAPGKEREGVAVLYTGGGSTYYADSVKGRFTISEDNAKNTVYLQMDSLKLEDTAMYYCALALGSARWYTSSLDARAYNIWGQGTQVTVSSGSIGAASMEFCFDVFKELKVHHANENIFYCPIAIMSALAMVYLGAKDSTRTQINKVVRFDKLPGFGDSIEAQCGTSVNVHSSLRDILNQITKPNDVYSFSLASRLYAEERYPILPEYLQCVKELYRGGLEPINFQTAADQARELINSWVESQTNGIIRNVLQPSSVDSQTAMVLVNAIVFKGLWEKAFKDEDTQAMPFRVTEQESKPVQMMYQIGLFRVASMASEKMKILELPFASGTMSMLVLLPDEVSGLEQLESIINFEKLTEWTSSNVMEERKIKVYLPRMKMEEKYNLTSVLMAMGITDVFSSSANLSGISSAESLKISQAVHAAHAEINEAGREVVGSAEAGVDAASVSEEFRADHPFLFCIKHIATNAVLFFGRCVSP
notes: Tested as recombinant VHH-OVA-His; not shown: His tag
B4: SLN6065 humanized VHH-Fc (Fc fusion)
chain: EVQLVESGGGLVQPGGSLRLSCAASRDAYFNNYMAWFRQAPGKGLEGVSSIATNTGNDYYADSVKGRFTISRDNSKNTIYLQMNSLRAEDTAVYYCAAGWRGGSFWTPSKYSYWGQGTLVTVSS
notes: tested as VHH-Fc; also called D2-9; not shown: human IgG4 Fc (VHH-hIgG4 Fc fusion)
B5: SLN0049 VHH-OVA-His (VHH)
chain: EVQLVESGGGSVQAGGSLRLSCAASRATNSRYSMGWFRQAPGKEREGVAAIDSIGRTSYADSVKGRFTISQDGAKNTLYLQMNSLKPEDTAMYYCAATAWRDWATLREYEYGYWGQGTQVTVSSGSIGAASMEFCFDVFKELKVHHANENIFYCPIAIMSALAMVYLGAKDSTRTQINKVVRFDKLPGFGDSIEAQCGTSVNVHSSLRDILNQITKPNDVYSFSLASRLYAEERYPILPEYLQCVKELYRGGLEPINFQTAADQARELINSWVESQTNGIIRNVLQPSSVDSQTAMVLVNAIVFKGLWEKAFKDEDTQAMPFRVTEQESKPVQMMYQIGLFRVASMASEKMKILELPFASGTMSMLVLLPDEVSGLEQLESIINFEKLTEWTSSNVMEERKIKVYLPRMKMEEKYNLTSVLMAMGITDVFSSSANLSGISSAESLKISQAVHAAHAEINEAGREVVGSAEAGVDAASVSEEFRADHPFLFCIKHIATNAVLFFGRCVSP
notes: as for B3
B6: SLN0072 VHH-OVA-His (VHH)
chain: EVQLVESGGGSVQAGGSLRLSCVASGYTGSSSYMGWFRQVPGKEREGVAQINSRSGSTYYADSVKGRFTISQDNAKNTVYLQMTSLKPEDTGMYYCAERFGPTFYPVPLGSNLYNYWGQGTQVTVSSGSIGAASMEFCFDVFKELKVHHANENIFYCPIAIMSALAMVYLGAKDSTRTQINKVVRFDKLPGFGDSIEAQCGTSVNVHSSLRDILNQITKPNDVYSFSLASRLYAEERYPILPEYLQCVKELYRGGLEPINFQTAADQARELINSWVESQTNGIIRNVLQPSSVDSQTAMVLVNAIVFKGLWEKAFKDEDTQAMPFRVTEQESKPVQMMYQIGLFRVASMASEKMKILELPFASGTMSMLVLLPDEVSGLEQLESIINFEKLTEWTSSNVMEERKIKVYLPRMKMEEKYNLTSVLMAMGITDVFSSSANLSGISSAESLKISQAVHAAHAEINEAGREVVGSAEAGVDAASVSEEFRADHPFLFCIKHIATNAVLFFGRCVSP
notes: as for B3
B7: SLN0071 VHH-OVA-His (VHH)
chain: EVQLVESGGGSVQAGGSLRLSCAGSEYTYSRCCMGWFRQAPGKEREGVVSINVLGGTSYADSVKGRFTISRDNAENTLYLQMNSLKPEDTAMYYCAAGLASAPWRPCGTTTEEYKYWGQGTQVTVSSGSIGAASMEFCFDVFKELKVHHANENIFYCPIAIMSALAMVYLGAKDSTRTQINKVVRFDKLPGFGDSIEAQCGTSVNVHSSLRDILNQITKPNDVYSFSLASRLYAEERYPILPEYLQCVKELYRGGLEPINFQTAADQARELINSWVESQTNGIIRNVLQPSSVDSQTAMVLVNAIVFKGLWEKAFKDEDTQAMPFRVTEQESKPVQMMYQIGLFRVASMASEKMKILELPFASGTMSMLVLLPDEVSGLEQLESIINFEKLTEWTSSNVMEERKIKVYLPRMKMEEKYNLTSVLMAMGITDVFSSSANLSGISSAESLKISQAVHAAHAEINEAGREVVGSAEAGVDAASVSEEFRADHPFLFCIKHIATNAVLFFGRCVSP
notes: as for B3
B8: SLN6062 humanized VHH-Fc (Fc fusion)
chain: EVQLVESGGGLVQPGGSLRLSCAASVYTASCMGWFRQAPGKGLELVSTLNRNSGRTSYVGSVKGRFTISQDNSKKTLYLQMNSLRAEDTAVYYCAATWSWYSFTCPGDQNAYIHWGQGTLVTVSS
notes: tested as VHH-Fc; also called C8-9; not shown: human IgG4 Fc (VHH-hIgG4 Fc fusion)
B9: SLN0044 VHH-OVA-His (VHH)
chain: DVQLVESGGGSVQAGGSLRLSCAASIYTYSTACMAWFRQAPGKEREGVAAIARYGDTTYTDSVKGRFTISRDVAKNILYLQMSSLKPEDTAMYYCASKSPNSGCDEYAHYETFGQGTQVTVSSGSIGAASMEFCFDVFKELKVHHANENIFYCPIAIMSALAMVYLGAKDSTRTQINKVVRFDKLPGFGDSIEAQCGTSVNVHSSLRDILNQITKPNDVYSFSLASRLYAEERYPILPEYLQCVKELYRGGLEPINFQTAADQARELINSWVESQTNGIIRNVLQPSSVDSQTAMVLVNAIVFKGLWEKAFKDEDTQAMPFRVTEQESKPVQMMYQIGLFRVASMASEKMKILELPFASGTMSMLVLLPDEVSGLEQLESIINFEKLTEWTSSNVMEERKIKVYLPRMKMEEKYNLTSVLMAMGITDVFSSSANLSGISSAESLKISQAVHAAHAEINEAGREVVGSAEAGVDAASVSEEFRADHPFLFCIKHIATNAVLFFGRCVSP
notes: as for B3
B10: SLN0065 VHH-OVA-His (VHH)
chain: EVQLVESGGGSVQAGGSLRLSCLYTDSLFWMGWFRQTPGNEREGVAVTGRDGSTIYADSVQGRFTISRDNAKNTLYLQMNSLKPDDTAMYYCAADQTRYSSLRLLAPNRSASWGQGTQVTVSSGSIGAASMEFCFDVFKELKVHHANENIFYCPIAIMSALAMVYLGAKDSTRTQINKVVRFDKLPGFGDSIEAQCGTSVNVHSSLRDILNQITKPNDVYSFSLASRLYAEERYPILPEYLQCVKELYRGGLEPINFQTAADQARELINSWVESQTNGIIRNVLQPSSVDSQTAMVLVNAIVFKGLWEKAFKDEDTQAMPFRVTEQESKPVQMMYQIGLFRVASMASEKMKILELPFASGTMSMLVLLPDEVSGLEQLESIINFEKLTEWTSSNVMEERKIKVYLPRMKMEEKYNLTSVLMAMGITDVFSSSANLSGISSAESLKISQAVHAAHAEINEAGREVVGSAEAGVDAASVSEEFRADHPFLFCIKHIATNAVLFFGRCVSP
notes: as for B3

Columns and labels:
human VEGFA121 = target: T1, human VEGFA121 (human, UniProt P15692-9 27-147, biotinylated); experiment: target-binding ELISA on hVEGFA121, humanized VHH-Fc
T1 construct: Biotinylated; also called hVEGFA121; hVEGFA121-biotin
T1 sequence (looked up): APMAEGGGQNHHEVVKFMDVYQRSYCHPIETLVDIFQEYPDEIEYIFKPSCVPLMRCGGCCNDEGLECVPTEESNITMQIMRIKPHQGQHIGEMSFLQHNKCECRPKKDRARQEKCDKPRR
Description: For binding ELISA, immunoplates were coated with 100 μl/well 1 μg/ml streptavidin and incubate at 4° C. overnight. Wells were washed with PBST for 3 times and blocked with 200 μl of 1% BSA/PBS at RT for 1 hr. Washed with PBST for 3 times and add hVEGFA121-biotin or mVEGFA120-biotin (0.1 μg/ml) 100 al/well and incubated at RT for 1 hr. Plates were washed with PBST for 3 times, 100 al/well 5-fold serially diluted VHH-Fcs from 2 μg/ml was added. and incubate at RT for 1 hr. Plates were washed with PBST for 3 times and add 100 al goat anti-human Fc-HRP (Sigma, A0170) diluted 1/5000 in 1% BSA/PBST to each well and incubate at RT for 1 hr. Plates were then washed as before and add 100 al TMB substrate and incubate at RT for 15 min. 100 al per well stop solution was added to stop the reaction, and the plates were read with microplate reader at 450 nm.
Four VHHs (C2, C8, F6, D2) were selected for humanization. Proceed with plasmid construction and protein production as above, the humanized VHH-Fc was characterized with target-binding (ELISA) and RBA.

[1] = target: T2, human transferrin receptor 1 on HEK293F-hTfR1 cells (human, UniProt P02786 1-760); experiment: flow cytometry on HEK293F-hTfR1 cells with or without transferrin
T2 construct: whole, on cells
Description: (§1) HEK293F-hTfR1 cells were prepared by transfecting hTfR1-expressing plasmid, with a GFP tag, into HEK293F cells. Stable pool was used for this assay. Briefly, the engineered HEK293F cells expressing hTfR1 were cultured with OPM-293 CD05 medium at 37° C., with 8% CO₂ and saturated humidity in cell shaker. […] The cells were washed twice by centrifugation at 300 g for 5 min at 4° C., before rabbit anti-OVA antibodies and a secondary anti-rabbit IgG-AF647 (all prepared in blocking buffer). The cells were scanned with CytoFLEX (Beckman).

[2] = target: T3, human transferrin (Sigma T3309) (human, UniProt P02787 20-698); experiment: flow cytometry on HEK293F-hTfR1 cells with human transferrin, pH 7.4; grade by % binding (+++ ≥ 15%)
T3 construct: mature; same polypeptide; also called native human transferrin; hTf
Description: as §1

[3] = target: T3, human transferrin (Sigma T3309); experiment: flow cytometry on HEK293F-hTfR1 cells with human transferrin, pH 6.0; grade by % binding (+++ ≥ 15%)
Description: as §1

[4] = target: T3, human transferrin (Sigma T3309); experiment: flow cytometry on HEK293F-hTfR1 cells with human transferrin, pH 7.4; grade by % binding (10% > + ≥ 5%)
Description: as §1

T3 sequence (P02787 20-698): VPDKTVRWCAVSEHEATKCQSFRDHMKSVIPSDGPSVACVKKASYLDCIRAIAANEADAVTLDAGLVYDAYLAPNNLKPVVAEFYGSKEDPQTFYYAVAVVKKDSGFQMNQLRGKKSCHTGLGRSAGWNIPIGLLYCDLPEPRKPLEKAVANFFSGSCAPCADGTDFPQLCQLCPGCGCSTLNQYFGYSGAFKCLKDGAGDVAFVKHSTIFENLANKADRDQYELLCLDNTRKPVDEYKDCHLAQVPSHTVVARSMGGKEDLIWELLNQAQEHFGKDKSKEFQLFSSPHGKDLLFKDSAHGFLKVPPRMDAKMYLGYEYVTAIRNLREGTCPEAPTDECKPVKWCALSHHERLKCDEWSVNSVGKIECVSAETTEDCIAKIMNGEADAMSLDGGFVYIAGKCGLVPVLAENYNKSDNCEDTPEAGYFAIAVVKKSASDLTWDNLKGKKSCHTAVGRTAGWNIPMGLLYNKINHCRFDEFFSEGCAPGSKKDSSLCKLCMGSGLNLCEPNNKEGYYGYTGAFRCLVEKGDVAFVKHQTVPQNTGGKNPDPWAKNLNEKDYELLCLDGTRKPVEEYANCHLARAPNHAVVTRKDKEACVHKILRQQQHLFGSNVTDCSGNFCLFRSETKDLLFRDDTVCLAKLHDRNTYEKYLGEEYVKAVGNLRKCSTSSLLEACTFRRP
T2 sequence (P02786 whole entry): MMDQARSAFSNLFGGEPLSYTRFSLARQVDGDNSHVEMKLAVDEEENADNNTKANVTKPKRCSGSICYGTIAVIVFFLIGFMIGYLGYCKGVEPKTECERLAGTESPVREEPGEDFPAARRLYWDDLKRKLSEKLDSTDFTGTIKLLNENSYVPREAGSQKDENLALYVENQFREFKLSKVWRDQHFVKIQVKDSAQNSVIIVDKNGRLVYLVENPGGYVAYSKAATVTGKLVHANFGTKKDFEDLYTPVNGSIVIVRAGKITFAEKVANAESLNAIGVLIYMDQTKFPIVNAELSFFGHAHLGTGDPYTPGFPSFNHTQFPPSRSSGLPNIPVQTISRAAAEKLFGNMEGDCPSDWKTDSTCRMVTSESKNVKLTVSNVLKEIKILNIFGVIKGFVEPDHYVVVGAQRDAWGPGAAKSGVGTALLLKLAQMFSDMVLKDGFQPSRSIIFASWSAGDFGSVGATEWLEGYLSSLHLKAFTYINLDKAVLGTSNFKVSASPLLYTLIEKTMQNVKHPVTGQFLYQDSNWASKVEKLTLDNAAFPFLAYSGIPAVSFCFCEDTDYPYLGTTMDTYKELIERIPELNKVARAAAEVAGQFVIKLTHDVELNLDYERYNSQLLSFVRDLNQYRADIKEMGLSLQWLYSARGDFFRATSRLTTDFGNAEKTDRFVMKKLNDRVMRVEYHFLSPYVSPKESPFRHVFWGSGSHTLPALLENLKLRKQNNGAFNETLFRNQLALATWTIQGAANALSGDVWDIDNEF

Binder	binding result (human VEGFA121)	binding result [1]	percent binding (flow cytometry, VHH/Tf on hTfR1-overexpressing cells, pH 7.4) [2]	percent binding (flow cytometry, VHH/Tf on hTfR1-overexpressing cells, pH 6.0) [3]	percent binding (flow cytometry, VHH/Tf on hTfR1-overexpressing cells, pH 7.4) [4]
B1	binds				
B2	binds				
B3		no binding (tested: 10 µg/mL)	≥ 15%	≥ 15%	
B4	binds				
B5		no binding (tested: 10 µg/mL)	≥ 15%	≥ 15%	
B6		no binding (tested: 10 µg/mL)	≥ 15%	≥ 15%	
B7		no binding (tested: 10 µg/mL)			5 to 10%
B8	binds				
B9		no binding (tested: 10 µg/mL)		≥ 15%	
B10		no binding (tested: 10 µg/mL)			5 to 10%
